± gives the standard deviation of the averaged measurements.
B1: library; a variant is named by its letters at N, in order (parent)
chain: AATGTTGTTGATGCAACCATAAAGTGATATTTAATAATTATTTATAATCAGCAACTTAACCACAAAACAACCATATATTGATATNTCACAAAACAACCATAANTTGATATTTTTGTGAATCGAGTATTTCAGCAAAACTACTGCAGTAAGAA

Assays:
[1] = variants of: B1; assay: relative integration efficiency (T-LR orientation) vs wild-type transposon end (log2 (normalized fold change)); transposon end mutated: left end; higher = more efficient transposition; conditions: with VchCAST RNA-guided transposition machinery (E. coli BL21(DE3) host, lacZ target)
Procedure, shortened: (§1)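 Pools of 1549 left-end or 1849 right-end barcoded transposon variants were cloned into a pUC57 mini-transposon donor and co-transformed into E. coli BL21(DE3) with a T7-driven effector plasmid carrying a CRISPR array, tniQ-cas8-cas7-cas6 and tnsA-tnsB-tnsC. Plating used 0.1 mM IPTG at 37°C for 18 h, and input plasmids and genomic integration junctions were PCR-amplified for Illumina sequencing, with two biological output replicates and four reference barcodes. Relative integration efficiency is the log-transformed fold change of output over input barcode abundance, normalised to the reference barcodes.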

[2] = variants of: B1; assay: relative integration efficiency (T-RL orientation) vs wild-type transposon end (log2 (normalized fold change)); transposon end mutated: left end; higher = more efficient transposition; conditions: with VchCAST RNA-guided transposition machinery (E. coli BL21(DE3) host, lacZ target)
Procedure, shortened: as §1

| Variant | relative integration efficiency (log2) [1] | relative integration efficiency (log2) [2] |
| --- | --- | --- |
| CG T76A A77T T78A T79A | -0.702 ± 1.2 | -0.611 ± 0.38 |
| CG T30G T31G | -1.56 ± 0.31 | -0.964 ± 0.45 |
| CG T45G A46C | 0.396 ± 0.26 | -0.219 ± 0.2 |
| CG T12A G13A T30A T31C T32A A77C T86G | -0.4 ± 0.61 | -0.303 ± 0.3 |
| CG T56G T57G A58C A59C | -2.31 ± 0.94 | -1.82 ± 0.62 |
| TG T76A T78A T84A C87A | 0.281 ± 0.38 | -0.028 ± 0.21 |
| CG T12A G13C C14G A15T | -0.874 ± 0.76 | -0.341 ± 0.43 |
| CG T86A C87G | 0.622 ± 0.21 | 0.28 ± 0.099 |
| CG T104G | -0.2 ± 0.48 | -0.0872 ± 0.27 |
| CG T104A | -0.147 ± 0.15 | -0.341 ± 0.23 |
| CG T104C | -0.483 ± 0.33 | -0.257 ± 0.037 |
| CG T45G A46C A47C T48G | -0.0893 ± 0.7 | -0.487 ± 0.43 |
| CG T20A A21T A22T A23T | -0.732 ± 0.16 | -0.758 ± 0.34 |
| CG T79C | -0.488 ± 0.74 | -0.605 ± 0.26 |
| CG T79A | -0.546 ± 0.48 | -0.596 ± 0.38 |
| CG T79G | -0.323 ± 0.18 | -0.702 ± 0.47 |
| CG T38A T39A A40T T41A | -0.9 ± 1.3 | 0.168 ± 0.1 |
| CG T74G | -1.2 ± 1.2 | -1.35 ± 0.79 |
| CG T74A | -0.12 ± 0.44 | -0.331 ± 0.2 |
| CG T74C | -0.976 ± 1.2 | -1.33 ± 0.63 |

| Variant | relative integration efficiency (log2) [1] | relative integration efficiency (log2) [2] |
| --- | --- | --- |
| CG T35A A36T | 0.24 ± 0.31 | 0.1527 ± 0.00087 |
| CG T32A T86A T112A | 0.255 ± 0.42 | -0.0963 ± 0.053 |
| CG T12A G13A T31C T32A A77C T86G | -0.861 ± 0.36 | -0.573 ± 0.15 |
| CG T105A G106C | -2.53 ± 0.084 | -2.19 ± 0.71 |
| CG T30C | 0.128 ± 0.19 | 0.0623 ± 0.096 |
| CG T30A | 0.497 ± 0.092 | 0.256 ± 0.046 |
| CG T30G | -0.765 ± 0.6 | -0.614 ± 0.37 |
| CG T32A A33T T86A C87G T112A T113A | -0.463 ± 0.11 | -0.48 ± 0.21 |
| AG T30G T31G T32G A33C T84G T86G C87A T110G T111G T112G T113G | -2.2 ± 1.2 | -2.54 ± 0.82 |
| CG T48A C49G | 0.449 ± 0.71 | 0.353 ± 0.18 |
| CG T39G A40C T41G T42G | 0.3517 ± 0.00068 | 0.179 ± 0.11 |
| CG T20G A21C A22C A23C | -2.4 ± 0.83 | -3.18 ± 0.88 |
| CG T32A A77C T86G | -0.351 ± 0.47 | -0.197 ± 0.12 |
| CG T57G A58C | -1.37 ± 0.37 | -1.45 ± 0.67 |
| CG T48C | -0.224 ± 0.18 | -0.219 ± 0.15 |
| CG T48A | 0.212 ± 0.68 | 0.162 ± 0.22 |
| CG T48G | 0.0472 ± 0.93 | 0.24 ± 0.2 |
| GG T31A T111A | -0.483 ± 0.67 | -0.581 ± 0.56 |
| CG T74A A75T | -0.113 ± 0.66 | -0.22 ± 0.27 |
| CG T38G T39G A40C T41G | 0.212 ± 0.16 | -0.193 ± 0.16 |

| Variant | relative integration efficiency (log2) [1] | relative integration efficiency (log2) [2] |
| --- | --- | --- |
| CG T74G A75C T76G A77C | -2.54 ± 1.3 | -1.95 ± 0.99 |
| GG T84A | -0.365 ± 0.032 | -0.231 ± 0.12 |
| CG T100C | -2.04 ± 0.83 | -1.27 ± 0.52 |
| CG T100A | 0.42 ± 1 | 0.66 ± 0.49 |
| CG T100G | -0.934 ± 1.6 | -0.706 ± 0.73 |
| CG T86G C87A | -0.424 ± 0.33 | -0.246 ± 0.1 |
| CG T78G T79G | 0.377 ± 0.26 | 0.387 ± 0.84 |
| AG T86G | 0.305 ± 0.13 | -0.271 ± 0.068 |
| CG T43C | -0.00723 ± 0.047 | -0.241 ± 0.11 |
| CG T43G | -0.00931 ± 0.27 | -0.28 ± 0.043 |
| CG T43A | 0.341 ± 0.042 | 0.0102 ± 0.024 |
| CG T82G | -0.227 ± 0.47 | -0.597 ± 0.43 |
| CG T82C | 0.362 ± 0.73 | 0.536 ± 0.29 |
| CG T42G | 0.0763 ± 0.34 | -0.115 ± 0.2 |
| CG T42A | 0.162 ± 0.27 | 0.471 ± 0.051 |
| CG T42C | 0.252 ± 0.45 | 0.37 ± 0.039 |
| CG T86A C87G A88T C89G | 0.1 ± 0.54 | -0.174 ± 0.12 |
| CG T48A C49G A50T G51C C52G A53T A54T C55G T56A T57A A58T | -2.96 ± 2.6 | -3.43 ± 1.1 |

Reference: the supplement of paper PMC10201428
